The source of these data is PMC6294562.

The target of this series is thrombin (alpha-thrombin) (UniProt P00734;P00734 328-363;364-622). Put plainly: X-ray crystallography.

B1: NU172 (ARC2172) (structured_DNA)
DNA: CGCCTAGGTTGGGTAGGGTGGTGGCG
On to B1, for which the binding result is listed as “binds”.
